Reference: the domain aggregation screens of Martell et al. (2025)

Experiment: soluble fraction after stress (log2 fold change); higher = more stays soluble; pooled small domains, quantitative proteomics
Details: stress: 75 degC
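Note: 20 min heating vs room temperature control held 20 min.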

Row | Sequence | soluble fraction (log2)
1 | HMSMSKISNLLEIMMIIQYKGLTTASELAQSLGVDKKTVYRYINSLSKANIPIYTKKGRYGGFYIDKNF | -1.29
2 | HMSLLTIDELSQATGVSVRTLRYYVSSGVLDKPTGETRNARYGTHHLDQVRNIKKLQEEGLTLNRILEIKK | -2.14
3 | HMDAVSTMIENLRVKTGKSLADWVGLAKGSGADKHGAMVGWLKSEHGLTHGYANLIAHETFRSAA | -0.129
4 | HMIYQEGMQVKYQGKEYVISEIQDYKTYKTIKLDDNEGYLNGFITGSEILSFRNESELDLEI | -0.208
5 | HMEVTLTLKSFGTAKVAVIKAIQSITGLGLMDAKKLVDAAPSVIKEKISPSEAEQYKKTLVDAGAEVEI | -2.31
6 | HMSFSPYLVRVSITDLNIRKGPGTNYAKTGKFTGKGVFTIVEMQTGKGSDTGWGRLKSGAGWISLDYTEKI | -3.47
7 | HMQQKNWIVRDGDGKIYGPFTTEQVLVQIDRGYFVGGEEVALYPGGRWIAISGAPEFYDRLLDALAMEG | -0.995
8 | HMGSPKLVIKNGQVDYQVLKKEKLDLLELTSLLRGQNTFSIREIEYAIIEPNGVITVIKKPEYQSVVKGDL | -0.43
9 | HMIIVMKRNATETQIDHVVRWVESIGYRAHRSNGTEQTVVKAVGGERGGEELKYLAALSGVEKVVPIR | -1.49
10 | HMTSGPAWPALSAQQRSVLAPLQRDWHTIDAARKAKWLEVAARFPSMPAEERQRVQERMAEWA | -0.0911
11 | HMERLKYSQVVDLFKGEQVKSFVLDESNQLKMELQDGSTVSYKLRSFEQFYLDLSDTVKEQKESGIITDYD | -0.685
12 | HMKQTFGAMLAALRKEKGMTQLELAEQMGVTDKAVSKWERDLSFPDVTSLPRLAEILEVSVDELMQ | -0.146
13 | HMKVSVPDIMDNSSLRQAEAKLRALGFRVTEPEYISGEKDWVYSVTYKGRTLNAGDKVPHEALLTLHVGNG | -0.163
14 | HMNRETAISIYRILHILEEPYKEVFTLRTLGDLSYREIADIFGKQENWARVTYHRAKLKIREALVS | -2.23
15 | HMAVDAASSTIGKNVEVSVANEKGDYENFNGKVKSASIKDGVVYLELELKDTGEIKEVPYSSLTKIT | 0.0437
16 | HMGVAAEDPDEAEKGAHSLKSSAANVGAEVVRGLAGEIESAASSGDVEAVRTILPGLEDAYSQAITDLET | 0.266
17 | HMPIHAGERLTLRLAGEGREAGQAIGYLEDGTLVIVERARHLIGQDVTVEVTRTLQTAGGRLVFAHLVE | -1.1
18 | HMLPVQGEEVAPGLYKFDFPFLADKRVWEKTINAFKAEHPELKVNYIYTGPDELNSKKKTHVLVYVFTES | -0.539
19 | HMRIEYYDDEELDRYIGTPASGYREAAVEEFREILLTLDADDVPGWVRSLQLRGIEFPESLRPELYL | -0.568
20 | HMDWREMTAWMAELLKRRTGDDVETWNARVRESGAHDEASLRAWLTEQGVTGYAQTLLVMERFGYPDFF | -2.89
21 | HMAAIPATVDEETYRRLKPMLKQYGILYHEFKPLRSGKKGAVELIFMEKDLALVQELLSRLKKEK | 0.432
22 | HMNRIFQERVVPAELDTLRADKVAASLFSDFSRNELAHWIKMGDLSINGGVKKAKDKLFEGDVLILDVEIV | -0.944
23 | HMNNMVNTLLKLLAEQDVLRGIVRRFTPSSVFVFLQNEEVEVELPLQGRSLAPGQLVELTQEGASVALKRL | -0.936
24 | HMQKIENYDQFVQAFKRLSGLDLKLYKENQMKRRINNFINNHGFKENYDQFFQAITGNKELYNAFFKHLTI | -0.527
25 | HMLSLSDIINDVMERLTREKNLTFDELLGEKRERRRIVYTFLALLELIRLKMIKAYQTAAFGVIRIFPR | -1.4
26 | HMIKKLDIEPIIKSVVDDFNNIYKLKRGITISYLNDGKNKYFINGIENRIEQIIANLLDNSISFSEDNKDV | 0.0165
27 | HMESRLQAAIALRKAGEHEQSREALKILADEPALRAQALLNIAWSFDNQGHERDAEGYYLAAIE | -0.381
28 | HMATQTGTVKWFNEGKGFGFIAPDDGSKDLFAHFSEIKTTGFKTLAEAQRVEFEVTEGRKGLQASNIK | 0.442
29 | HMPMTRILFLPDDRTILQFDSAEPAEDLVSAVNAGRWLPPEPYRSGFGLGLPENRLRASRQGALVVVMLS | -0.984
30 | HMKNMSLGERIKEQRKSSGLSQEKVAEFVGVSRQAVTKWETGQSAPSTENLFKLAEIFGTTVDILLA | -0.198
